Laboratory results: article PMC5490264 (Nature Communications, 2017)

B1: Halo-YscQ (natural protein)
chain: MSLLTLPQAKLSELSLRQRLSHYRQNYLWEEGKLELTVSEPPSSLNCILQLQWKGTHFTLYCFGDDLANWLTPDLLGAPFSTLPKELQLALLERQTVFLPKLVCNDIATASLSVTQPLLSLRLSRDNAHISFWLTSAEALFALLPARPNSERIPLPILLSLRWHKVYLTLDEVDSLRLGDVLLAPEGSGPNSPVLAYVGENPWGYFQLQSNKLEFIGMSHESDELNPKPLTDLNQLPVQVSFEVGRQILDWHTLTSLEPGSLIDLTTPVDGEVRLLANGRLLGHGRLVEIQGRLGVRIERLTEVTIS
notes: also called Halo-tagged YscQ; SctQ/YscQ

Assays:
Halo-YscQ = molecular target: B1; experiment: affinity purification with mass spectrometry; as a1, but strains lacking YscD (ΔyscD; all soluble components diffuse in the cytosol); amounts normalized to the WT strain; one representative quantitative mass spectrometry experiment; settings: partners not purified
[1] = molecular target: the molecule itself; experiment: as above

Binder | degree of interaction in the ΔyscD strain relative to the WT strain (Halo-YscQ) | degree of interaction in the ΔyscD strain relative to the WT strain [1]
YscN (enzyme, YscN (SctN), type III secretion ATPase, Yersinia enterocolitica; also called SctN/YscN; T3SS ATPase; source: endogenous, Y. enterocolitica lysate (pYV virulence plasmid)) MLSLDQIPHHIRHGIVGSRLIQIRGRVTQVTGTLLKAVVPGVRIGELCYLRNPDNSLSLQAEVIGFAQHQALLIPLGEMYGISSNTEVSPTGTMHQVGVGEHLLGQVLDGLGQPFDGGHLPEPAAWYPVYQDAPAPMSRKLITTPLSLGIRVIDGLLTCGEGQRMGIFAAAGGGKSTLLASLIRSAEVDVTVLALIGERGREVREFIESDLGEEGLRKAVLVVATSDRPSMERAKAGFVATSIAEYFRDQGKRVLLLMDSVTRFARAQREIGLAAGEPPTRRGYPPSVFAALPRLMERAGQSSKGSITALYTVLVEGDDMTEPVADETRSILDGHIILSRKLAAANHYPAIDVLRSASRVMNQIVSKEHKTWAGDLRRLLAKYEEVELLLQIGEYQKGQDKEADQAIERIGAIRGWLCQGTHELSHFNETLNLLETLTQ | ~20% | –
YscL (natural protein, YscL (SctL), negative regulator of the T3SS ATPase, Yersinia enterocolitica; untagged; also called SctL/YscL; negative regulator of the ATPase; source: endogenous, Y. enterocolitica lysate (strain expressing Halo-YscQ)) MSQTCQTGYAYMQPFVQIIPSNLSLACGLRILRAEDYQSSLTTEELISAAKQDAEKILADAQEVYEQQKQLGWQAGMDEARTLQATLIHETQLQCQQFYRHVEQQMSEVVLLAVRKILNDYDQVDMTLQVVREALALVSNQKQVVVRVNPDQAGTIREQIAKVHKDFPEISYLEVTADARLDQGGCILETEVGIIDASIDGQIEALSRAISTTLGQMKVTEEE | ~50% | –
B1 | – | ~50%
